Measured values: US20240269306A1 (MERSANA THERAPEUTICS, published 2024)

Experiments:
[1] = molecular target: T1, Human B7-H4 on the cell surface (MX-1, HCC1569, CAMA-1 cells); HEK-293 cells stably transfected with human … (human, UniProt Q7Z7D3 25-282); test: flow cytometry, MX-1 cells, mean of two experiments
T1 construct: The cell line of each result is named under assay or readout; also called cell surface B7-H4
T1 sequence: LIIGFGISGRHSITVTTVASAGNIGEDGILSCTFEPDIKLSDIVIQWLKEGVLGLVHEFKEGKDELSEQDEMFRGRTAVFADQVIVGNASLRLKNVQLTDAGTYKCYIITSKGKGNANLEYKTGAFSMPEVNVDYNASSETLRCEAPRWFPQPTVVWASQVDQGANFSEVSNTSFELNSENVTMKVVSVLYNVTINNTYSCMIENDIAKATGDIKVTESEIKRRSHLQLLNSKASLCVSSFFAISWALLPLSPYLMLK

[2] = molecular target: T2, Rat B7-H4 protein (R&D Systems 10085-B7) (rat, UniProt Q501W4 29-257, limits assumed); test: ELISA, coated rat B7-H4, mean of two studies
T2 construct: Bought protein
T2 sequence (looked up): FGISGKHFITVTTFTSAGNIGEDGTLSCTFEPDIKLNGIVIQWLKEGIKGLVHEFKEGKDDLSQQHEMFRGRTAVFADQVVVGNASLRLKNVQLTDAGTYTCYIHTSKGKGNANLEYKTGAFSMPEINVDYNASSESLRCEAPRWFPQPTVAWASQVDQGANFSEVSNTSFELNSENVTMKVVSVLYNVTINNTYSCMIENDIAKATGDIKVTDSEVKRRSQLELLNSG

[3] = molecular target: T3, Monkey B7-H4 protein (Creative Biomart; VTCN1-1519R) (monkey); test: ELISA, coated monkey B7-H4, mean of two studies
T3 construct: Bought protein

[4] = molecular target: T1, Human B7-H4 on the cell surface (MX-1, …); test: flow cytometry, MX-1 cells
[5] = molecular target: T1, Human B7-H4 on the cell surface (MX-1, …); test: flow cytometry, HEK-293 cells stably transfected with human B7-H4, mean of two experiments
[6] = molecular target: T4, Mouse B7-H4 protein (Creative Biomart; VTCN1-1519R) (mouse, UniProt Q7TSP5 25-257); test: ELISA, coated mouse B7-H4, mean of two studies
T4 construct: Bought protein
T4 sequence (looked up): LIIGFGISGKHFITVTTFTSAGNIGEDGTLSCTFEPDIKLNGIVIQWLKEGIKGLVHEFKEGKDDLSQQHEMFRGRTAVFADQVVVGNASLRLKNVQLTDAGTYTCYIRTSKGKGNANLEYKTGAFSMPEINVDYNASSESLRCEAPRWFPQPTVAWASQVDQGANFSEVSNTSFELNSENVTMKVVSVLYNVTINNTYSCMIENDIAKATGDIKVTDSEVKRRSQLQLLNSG

[7] = molecular target: T5, Recombinant human B7-H4 protein (R&D Systems #6576-B7-050) (human, UniProt Q7Z7D3 29-258); test: ELISA, coated recombinant human B7-H4
T5 construct: Bought protein
T5 sequence: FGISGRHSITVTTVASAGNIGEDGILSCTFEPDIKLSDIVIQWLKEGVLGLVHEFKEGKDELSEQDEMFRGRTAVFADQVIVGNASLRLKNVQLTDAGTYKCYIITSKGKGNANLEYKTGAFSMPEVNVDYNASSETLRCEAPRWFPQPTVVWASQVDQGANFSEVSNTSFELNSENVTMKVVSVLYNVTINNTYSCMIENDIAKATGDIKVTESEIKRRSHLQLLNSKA

[8] = molecular target: T5, Recombinant human B7-H4 protein (R&D …); test: ELISA, coated recombinant human B7-H4; remark: listed apart in the source
[9] = molecular target: T5, Recombinant human B7-H4 protein (R&D …); test: ELISA, coated recombinant human B7-H4; remark: listed apart in the source
[10] = molecular target: T5, Recombinant human B7-H4 protein (R&D …); test: ELISA, coated human B7-H4, mean of two studies

B1: Palivizumab (antibody, V domains shown)
VH: QVTLRESGPALVKPTQTLTLTCTFSGFSLSTSGMSVGWIRQPPGKALEWLADIWWDDKKDYNPSLKSRLTISKDTSKNQVVLKVTNMDPADTATYYCARSMITNWYFDVWGAGTTVTVSS
VL: DIQMTQSPSTLSASVGDRVTITCKCQLSVGYMHWYQQKPGKAPKLLIYDTSKLASGVPSRFSGSGSGTEFTLTISSLQPDDFATYYCFQGSGYPFTFGGGTKLEIK
- EC50 [1]: > 100 nM
- EC50 [2]: > 100 nM
- EC50 [3]: > 100 nM
- EC50 [4]: > 200 nM
- EC50 [5]: > 100 nM
- EC50 [6]: > 100 nM
- EC50 [7]: > 100 nM
- EC50 [8]: > 100 nM
- EC50 [9]: > 100 nM
- EC50 [10]: > 100 nM
